Data taken from US20120316071A1 (published 2012).
Substitutions are numbered along the chain they refer to. Numbers in names are those of the source. Each block holds one binder with its values, some of them ahead of it.

Columns and labels:
[1] = target: T1, Recombinant Human DLL4 (R&D Systems Cat#1506-D4/CF) (human, UniProt Q9NR61 27-524); test: SPR
T1 construct: bought recombinant protein; also called rHuman DLL4; delta-like protein 4

[2] = target: T2, full-length human DLL4 expressed on the surface of CHO cells (human, UniProt Q9NR61 26-685); test: competition, flow cytometry; 250 nM biotinylated Notch-Fc as competitor on CHO-DLL4 cells, streptavidin-PE
T2 construct: also called CHO-DLL4; DLL4-expressing CHO cells

[3] = target: T3, Recombinant Human DLL4 (R&D Systems Cat#1506-D4/CF) (human, UniProt Q9NR61 27-524); test: ELISA, DLL4 coated on plate, Fab at 100 nM, absorbance at 450 nm
T3 construct: also called delta-like protein 4; rHuman DLL4

[4] = target: T1, Recombinant Human DLL4 (R&D Systems …); test: ELISA titration, 3-fold dilutions from 20 nM Fab

B5: Fab H:APFF LTH & L6_IGKJ1*01 S28N/S30D/S31H (NDH) (Fab, V domains shown)
VH: QVQLVQSGAEVKKPGASVKVSCKASGYTFTSYYMHWVRQAPGQGLEWMGIILPTGHSTSYAQKFQGRVTMTRDTSTSTVYMELSSLRSEDTAVYYCAREEYAPFSAEYFQFWGQGTLVTVSS
VL: EIVLTQSPATLSLSPGERATLSCRASQNVDHYLAWYQQKPGQAPRLLIYDASNRATGIPARFSGSGSGTDFTLTISSLEPEDFAVYYCQQRSNWPPWTFGQGTKVEIKR
notes: Fab; also called H:APFF LTH & L:NDH
fold binding affinity against the antibody mutants with heavy chain H:APFF ALTH [4]: ~10 fold

B6: Fab VH1-46_IGHD6-6*01_IGHJ1*01 S102A/S103P/S104F/H111F I51V/N52L/S54T/G56H & L6_IGKJ1*01 S28N/S30D/S31H S52L/A55S (Fab, V domains shown)
VH: B5 VH with I51V
VL: B5 VL with S52L, A55S
notes: Fab; Constant parts come from Plasmid A (CH1, His6, Flag) and Plasmid C (kappa CL); also called H:APFF VLTH & L:NDH LS
signal of biotinylated Notch-Fc bound to CHO-DLL4 cells at 2 nM Fab (read-out not given) [2]: 117 | signal of biotinylated Notch-Fc bound to CHO-DLL4 cells at 10 nM Fab (read-out not given) [2]: 30

B8: Fab H:APFF VLTH & L6_IGKJ1*01 S28N/S30D/S31H S52L/A55G (NDH LG) (Fab, V domains shown)
VH: B5 VH with I51V
VL: B5 VL with S52L, A55G
notes: Fab; also called H:APFF VLTH & L:NDH LG
fold binding affinity against the antibody mutants with heavy chain H:APFF ALTH [4]: ~10 fold

B9: Fab H:APFF LTH & L6_IGKJ1*01 S28N/S30D/S31H S52L/A55S (NDH LS) (Fab, V domains shown)
VH: B5 VH
VL: B5 VL with S52L, A55S
notes: Fab; also called H:APFF LTH & L:NDH LS
fold binding affinity against the antibody mutants with heavy chain H:APFF ALTH [4]: ~10 fold

B10: Fab H:APFF LTH & L6_IGKJ1*01 S28N/S30D/S31H S52L/A55G (NDH LG) (Fab, V domains shown)
VH: B5 VH
VL: B5 VL with S52L, A55G
notes: Fab; also called H:APFF LTH & L:NDH LG
fold binding affinity against the antibody mutants with heavy chain H:APFF ALTH [4]: ~10 fold

B11: Fab H:APFF VLTH & L6_IGKJ1*01 S28N/S30D/S31H (NDH) (Fab, V domains shown)
VH: B5 VH with I51V
VL: B5 VL
notes: Fab; also called H:APFF VLTH & L:NDH
fold binding affinity against the antibody mutants with heavy chain H:APFF ALTH [4]: ~10 fold

Continued, values first:

fold binding affinity against the parental Fab [1]: 1000 fold
B1: Fab VH5-51_IGHD5-18*01>3_IGHJ4*01 G100K/G104T G24T/S28R/G35V (H:KT TRV) & V3-4_IGLJ1*01 V91L/S96P (L:LP) (Fab, V domains shown)
VH: EVQLVQSGAEVKKPGESLKISCKTSGYRFTSYWIVWVRQMPGKGLEWMGIIYPGDSDTRYSPSFQGQVTISADKSISTAYLQWSSLKASDTAMYYCARRKYSYTYDYFDYWGQGTLVTVSS
VL: QTVVTQEPSFSVSPGGTVTLTCGLSSGSVSTSYYPSWYQQTPGQAPRTLIYSTNTRSSGVPDRFSGSILGNKAALTITGAQADDESDYYCLLYMGPGISYVFGTGTKVTVL
notes: Fab; also called H:KT TRV & L:LP

signal of biotinylated Notch-Fc bound to CHO-DLL4 cells at 2 nM Fab (read-out not given) [2]: 250 | signal of biotinylated Notch-Fc bound to CHO-DLL4 cells at 10 nM Fab (read-out not given) [2]: 190
B2: Fab VH5-51_IGHD5-18*01>3_IGHJ4*01 G100K/G104T G24T/S28R/G35V & V3-4_IGLJ1*01 V91L/S96P S52G (Fab, V domains shown)
VH: B1 VH
VL: B1 VL with S52G
notes: Fab; Constant parts come from Plasmid A (CH1, His6, Flag) and Plasmid E (lambda CL); also called H:KT TRV & L:LP S52G

ELISA Signal-blank (100 nM Fab) [3]: 0.499
B3: Fab VH5-51_IGHD5-18*01>3_IGHJ4*01 G100K/G104T G24T/S28R/G35V (H:KT TRV) & V3-4_IGLJ1*01 S96R (Fab, V domains shown)
VH: B1 VH
VL: B1 VL with L91V, P96R
notes: Tested as Fab expressed in E. coli

ELISA Signal-blank (100 nM Fab) [3]: 0.358
B4: Fab VH5-51_IGHD5-18*01>3_IGHJ4*01 G100K/G104T G24T/S28R/G35V (H:KT TRV) & V3-4_IGLJ1*01 S96M (Fab, V domains shown)
VH: B1 VH
VL: B1 VL with L91V, P96M
notes: as for B3

fold binding affinity against the antibody mutants with heavy chain H:APFF ALTH [4]: ~10 fold | fold binding affinity against the parent Fab [1]: 430 fold
B7: Fab VH1-46_IGHD6-6*01_IGHJ1*01 S102A/S103P/S104F/H111F I51V/N52L/S54T/G56H (H:APFF VLTH) & L6_IGKJ1*01 S28N/S30D/S31H S52L/A55S (L:NDH LS) (Fab, V domains shown)
VH: B5 VH with I51V
VL: B5 VL with S52L, A55S
notes: Fab; also called H:APFF VLTH & L:NDH LS
